Measurements: paper PMC9482650, “Quantitative fragmentomics allow affinity mapping of interactomes” (Nature Communications, 2022)

How the values were obtained:
Assay in all cases: holdup assay
Set-up in all cases: key: below the threshold = too weak to quantify, mostly under pKd 3.1 to 4
Conditions in all cases: plain residues with an end cap or a label only (N-terminal biotin on a linker: ado-ado)
[1] = biological target: T1, APBA2_1, Q99767
T1 sequence (Q99767 563-664, limits assumed, looked up): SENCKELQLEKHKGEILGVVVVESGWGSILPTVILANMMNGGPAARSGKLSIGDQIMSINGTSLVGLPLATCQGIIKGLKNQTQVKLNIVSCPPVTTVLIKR

[2] = biological target: T2, ARHGEF11, O15085
T2 sequence (O15085 42-136, limits assumed, looked up): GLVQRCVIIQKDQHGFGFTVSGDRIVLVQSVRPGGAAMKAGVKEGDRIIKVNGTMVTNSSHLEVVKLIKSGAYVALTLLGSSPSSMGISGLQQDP

[3] = biological target: ARHGEF12, Q9NZN5-2
Sequence of ARHGEF12, Q9NZN5-2 (Q9NZN5 other isoform, or with tags, fused parts or gaps): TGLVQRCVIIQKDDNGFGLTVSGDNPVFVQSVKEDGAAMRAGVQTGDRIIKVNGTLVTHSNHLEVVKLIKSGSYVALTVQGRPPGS

[4] = biological target: CASK, O14936
Sequence of CASK, O14936 (O14936 487-570): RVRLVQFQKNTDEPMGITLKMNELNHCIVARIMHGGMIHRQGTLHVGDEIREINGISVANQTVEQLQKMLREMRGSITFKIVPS

[5] = biological target: DLG2_2, Q15700
[6] = biological target: DLG2_3, Q15700
[7] = biological target: GRID2IP_1, A4D2P6
Sequence of GRID2IP_1, A4D2P6 (A4D2P6 1-87): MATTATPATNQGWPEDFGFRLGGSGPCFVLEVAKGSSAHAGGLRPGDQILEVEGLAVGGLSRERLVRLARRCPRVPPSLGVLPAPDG

[8] = biological target: T3, GRIP1_2, Q9Y3R0
T3 sequence (Q9Y3R0 145-248, limits assumed, looked up): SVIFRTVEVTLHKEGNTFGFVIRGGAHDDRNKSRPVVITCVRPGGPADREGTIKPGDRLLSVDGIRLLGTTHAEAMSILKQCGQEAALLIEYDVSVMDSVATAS

[9] = biological target: T4, GRIP1_3, Q9Y3R0
T4 sequence (Q9Y3R0 247-346, limits assumed, looked up): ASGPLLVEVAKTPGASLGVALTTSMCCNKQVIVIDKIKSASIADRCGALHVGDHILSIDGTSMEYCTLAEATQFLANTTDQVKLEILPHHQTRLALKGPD

[10] = biological target: GRIP2_6, Q9C0E4
Sequence of GRIP2_6, Q9C0E4 (Q9C0E4 648-740): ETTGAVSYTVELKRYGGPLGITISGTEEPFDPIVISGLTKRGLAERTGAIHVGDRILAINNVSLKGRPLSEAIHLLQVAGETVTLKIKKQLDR

[11] = biological target: HTRA1, Q92743
Sequence of HTRA1, Q92743 (Q92743 360-477): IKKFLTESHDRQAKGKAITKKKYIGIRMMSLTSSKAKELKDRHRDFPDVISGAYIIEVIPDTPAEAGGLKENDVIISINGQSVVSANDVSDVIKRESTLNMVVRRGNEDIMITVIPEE

[12] = biological target: IL16_4, Q14005
Sequence of IL16_4, Q14005 (Q14005 1229-1329): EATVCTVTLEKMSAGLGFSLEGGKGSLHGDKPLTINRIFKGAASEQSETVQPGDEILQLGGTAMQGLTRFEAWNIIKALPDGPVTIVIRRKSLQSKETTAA

[13] = biological target: Inadl_10, Q8NI35
Sequence of Inadl_10, Q8NI35 (Q8NI35 1673-1763): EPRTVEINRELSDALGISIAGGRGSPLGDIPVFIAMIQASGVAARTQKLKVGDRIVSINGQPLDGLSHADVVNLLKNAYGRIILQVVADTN

[14] = biological target: Inadl_2, Q8NI35
Sequence of Inadl_2, Q8NI35 (Q8NI35 238-335): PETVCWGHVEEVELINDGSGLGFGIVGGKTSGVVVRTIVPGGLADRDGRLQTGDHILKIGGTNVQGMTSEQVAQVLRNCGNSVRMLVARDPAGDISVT

[15] = biological target: T5, LIN7C, Q9NUP9
T5 sequence (Q9NUP9 88-185, limits assumed, looked up): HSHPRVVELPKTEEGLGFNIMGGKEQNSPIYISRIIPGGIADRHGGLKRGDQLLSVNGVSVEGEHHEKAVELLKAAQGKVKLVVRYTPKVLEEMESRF

[16] = biological target: LNX1_2, Q8TBB1
Sequence of LNX1_2, Q8TBB1 (Q8TBB1 371-470): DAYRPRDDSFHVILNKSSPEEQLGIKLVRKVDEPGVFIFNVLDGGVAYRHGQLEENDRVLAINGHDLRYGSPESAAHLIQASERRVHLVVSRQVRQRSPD

[17] = biological target: MAGI1_1, Q96QZ7
Sequence of MAGI1_1, Q96QZ7 (Q96QZ7 1-106): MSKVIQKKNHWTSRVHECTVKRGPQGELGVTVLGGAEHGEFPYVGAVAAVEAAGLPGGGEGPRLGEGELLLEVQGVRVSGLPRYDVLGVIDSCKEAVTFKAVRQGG

[18] = biological target: T6, NHERF3_1, Q5T2W1
T6 sequence (Q5T2W1 4-100, limits assumed, looked up): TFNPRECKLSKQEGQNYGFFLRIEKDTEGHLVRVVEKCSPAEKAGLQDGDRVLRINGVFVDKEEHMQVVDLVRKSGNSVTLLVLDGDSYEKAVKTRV

[19] = biological target: T7, NHERF3_3, Q5T2W1
T7 sequence (Q5T2W1 238-333, limits assumed, looked up): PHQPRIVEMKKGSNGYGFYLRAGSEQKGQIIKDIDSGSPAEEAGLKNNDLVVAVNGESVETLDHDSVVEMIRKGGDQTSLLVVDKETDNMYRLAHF

[20] = biological target: PDZRN4_1, Q6ZMN7
Sequence of PDZRN4_1, Q6ZMN7 (Q6ZMN7 213-318): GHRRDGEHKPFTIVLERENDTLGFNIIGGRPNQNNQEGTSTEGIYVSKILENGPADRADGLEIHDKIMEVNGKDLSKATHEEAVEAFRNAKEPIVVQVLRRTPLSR

[21] = biological target: T8, RADIL, Q96JH8
T8 sequence (Q96JH8 971-1071, limits assumed, looked up): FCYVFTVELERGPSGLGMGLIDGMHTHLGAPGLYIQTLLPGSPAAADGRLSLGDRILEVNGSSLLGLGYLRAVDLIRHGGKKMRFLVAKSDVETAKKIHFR

[22] = biological target: T9, RHPN1, Q8TCX5
T9 sequence (Q8TCX5 508-602, limits assumed, looked up): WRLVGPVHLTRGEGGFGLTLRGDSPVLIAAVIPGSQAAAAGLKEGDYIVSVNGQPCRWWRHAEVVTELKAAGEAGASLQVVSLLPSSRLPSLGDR

[23] = biological target: T10, SNTG1, Q9NSN8
T10 sequence (Q9NSN8 52-150, limits assumed, looked up): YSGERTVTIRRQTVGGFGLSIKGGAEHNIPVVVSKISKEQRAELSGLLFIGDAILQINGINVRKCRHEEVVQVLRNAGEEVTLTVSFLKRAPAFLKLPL

[24] = biological target: T11, SYNJ2BP, P57105
T11 sequence (P57105 8-110, limits assumed, looked up): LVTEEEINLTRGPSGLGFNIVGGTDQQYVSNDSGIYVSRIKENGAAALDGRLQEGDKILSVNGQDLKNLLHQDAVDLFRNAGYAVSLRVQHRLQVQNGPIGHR

[25] = biological target: TJP1_2, Q07157
Sequence of TJP1_2, Q07157 (Q07157 181-274): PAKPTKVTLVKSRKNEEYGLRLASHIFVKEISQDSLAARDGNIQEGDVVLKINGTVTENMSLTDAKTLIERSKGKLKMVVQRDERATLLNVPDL

[26] = biological target: T12, TJP3_3, O95049
T12 sequence (O95049 375-456, limits assumed, looked up): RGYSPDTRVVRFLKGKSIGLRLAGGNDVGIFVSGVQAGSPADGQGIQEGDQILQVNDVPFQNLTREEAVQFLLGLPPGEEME

B1: NECTIN3, Q9NQS3 (peptide)
chain: SVISRREWYV
Question: How did the pKd [1] turn out when B1 was run?
Answer: below the threshold

Question: And the pKd [2]?
Answer: 4.55

Question: What about the pKd [3] of the same binder?
Answer: 3.64

Question: What about the pKd [4] of the same binder?
Answer: 3.75

Question: And the pKd [5]?
Answer: 3.49

Question: And the pKd [6]?
Answer: 4.05

Question: And the pKd [7]?
Answer: below the threshold

Question: And the pKd [8]?
Answer: below the threshold

Question: And the pKd [9]?
Answer: below the threshold

Question: And the pKd [10]?
Answer: 4.81

Question: What about the pKd [11] of the same binder?
Answer: 5.62

Question: What about the pKd [12] of the same binder?
Answer: below the threshold

Question: And the pKd [13]?
Answer: below the threshold

Question: What about the pKd [14] of the same binder?
Answer: 4.91

Question: What about the pKd [15] of the same binder?
Answer: 3.95

Question: And the pKd [16]?
Answer: 4.59

Question: And the pKd [17]?
Answer: below the threshold

Question: What about the pKd [18] of the same binder?
Answer: 4.52

Question: What about the pKd [19] of the same binder?
Answer: below the threshold

Question: What about the pKd [20] of the same binder?
Answer: below the threshold

Question: What about the pKd [21] of the same binder?
Answer: 5.27

Question: What about the pKd [22] of the same binder?
Answer: below the threshold

Question: And the pKd [23]?
Answer: 3.79

Question: And the pKd [24]?
Answer: 3.55

Question: What about the pKd [25] of the same binder?
Answer: 3.82

Question: And the pKd [26]?
Answer: 4.39

B2: YAP1, P46937 (peptide)
chain: LDKESFLTWL
Question: For B2, which pKd [1] is on record?
Answer: below the threshold

Question: What about the pKd [2] of the same binder?
Answer: 5.32

Question: And the pKd [3]?
Answer: 4.84

Question: And the pKd [4]?
Answer: below the threshold

Question: What about the pKd [5] of the same binder?
Answer: below the threshold

Question: What about the pKd [6] of the same binder?
Answer: below the threshold

Question: And the pKd [7]?
Answer: below the threshold

Question: And the pKd [8]?
Answer: 3.51

Question: And the pKd [9]?
Answer: below the threshold

Question: And the pKd [10]?
Answer: below the threshold

Question: What about the pKd [11] of the same binder?
Answer: 5.58

Question: What about the pKd [12] of the same binder?
Answer: below the threshold

Question: And the pKd [13]?
Answer: 5.45

Question: And the pKd [14]?
Answer: 3.91

Question: And the pKd [15]?
Answer: below the threshold

Question: What about the pKd [16] of the same binder?
Answer: below the threshold

Question: And the pKd [17]?
Answer: 3.65

Question: What about the pKd [18] of the same binder?
Answer: 5.1

Question: And the pKd [19]?
Answer: 4.15

Question: And the pKd [20]?
Answer: 4.1

Question: What about the pKd [21] of the same binder?
Answer: 5.51

Question: And the pKd [22]?
Answer: 4.7

Question: What about the pKd [23] of the same binder?
Answer: below the threshold

Question: And the pKd [24]?
Answer: 4.47

Question: And the pKd [25]?
Answer: 3.67

Question: And the pKd [26]?
Answer: 4.18

B3: SCN4A, P35499 (peptide)
chain: VRPGVKESLV
Question: For B3, which pKd [1] is on record?
Answer: below the threshold

Question: What about the pKd [2] of the same binder?
Answer: below the threshold

Question: And the pKd [3]?
Answer: below the threshold

Question: And the pKd [4]?
Answer: below the threshold

Question: What about the pKd [5] of the same binder?
Answer: 5.23

Question: What about the pKd [6] of the same binder?
Answer: 4.27

Question: And the pKd [7]?
Answer: below the threshold

Question: And the pKd [8]?
Answer: below the threshold

Question: What about the pKd [9] of the same binder?
Answer: below the threshold

Question: What about the pKd [10] of the same binder?
Answer: below the threshold

Question: What about the pKd [11] of the same binder?
Answer: 3.89

Question: What about the pKd [12] of the same binder?
Answer: below the threshold

Question: What about the pKd [13] of the same binder?
Answer: below the threshold

Question: And the pKd [14]?
Answer: below the threshold

Question: And the pKd [15]?
Answer: 4.38

Question: And the pKd [16]?
Answer: below the threshold

Question: And the pKd [17]?
Answer: below the threshold

Question: And the pKd [18]?
Answer: 4.6

Question: What about the pKd [19] of the same binder?
Answer: below the threshold

Question: And the pKd [20]?
Answer: 4.25

Question: And the pKd [21]?
Answer: 4.22

Question: What about the pKd [22] of the same binder?
Answer: 4.33

Question: What about the pKd [23] of the same binder?
Answer: 4.85

Question: What about the pKd [24] of the same binder?
Answer: 5.09

Question: And the pKd [25]?
Answer: below the threshold

Question: And the pKd [26]?
Answer: below the threshold

B4: ADAM17, P78536 (peptide)
chain: NRVDSKETEC
Question: Which pKd [1] does the source give for B4 here?
Answer: below the threshold

Question: What about the pKd [2] of the same binder?
Answer: 3.59

Question: And the pKd [3]?
Answer: 3.95

Question: And the pKd [4]?
Answer: below the threshold

Question: What about the pKd [5] of the same binder?
Answer: 4.25

Question: And the pKd [6]?
Answer: 3.97

Question: What about the pKd [7] of the same binder?
Answer: below the threshold

Question: What about the pKd [8] of the same binder?
Answer: 3.59

Question: And the pKd [9]?
Answer: below the threshold

Question: And the pKd [10]?
Answer: below the threshold

Question: And the pKd [11]?
Answer: 3.56

Question: What about the pKd [12] of the same binder?
Answer: 3.6

Question: And the pKd [13]?
Answer: below the threshold

Question: And the pKd [14]?
Answer: below the threshold

Question: What about the pKd [15] of the same binder?
Answer: 3.81

Question: And the pKd [16]?
Answer: below the threshold

Question: And the pKd [17]?
Answer: 3.53

Question: And the pKd [18]?
Answer: 3.81

Question: What about the pKd [19] of the same binder?
Answer: below the threshold

Question: And the pKd [20]?
Answer: below the threshold

Question: And the pKd [21]?
Answer: below the threshold

Question: And the pKd [22]?
Answer: below the threshold

Question: What about the pKd [23] of the same binder?
Answer: 3.63

Question: What about the pKd [24] of the same binder?
Answer: 4.28

Question: And the pKd [25]?
Answer: below the threshold

Question: And the pKd [26]?
Answer: below the threshold
